# Laboratory results taken from patent publication US20220267469A1 (LIPUM, published 2022).
# T1: Mouse BSSL, recombinant (mouse, UniProt Q64285 21-599)
# T1 construct: Bought (R&D Systems, Cat. no 5658-CE); also called mBSSL; murine BSSL
# T1 sequence: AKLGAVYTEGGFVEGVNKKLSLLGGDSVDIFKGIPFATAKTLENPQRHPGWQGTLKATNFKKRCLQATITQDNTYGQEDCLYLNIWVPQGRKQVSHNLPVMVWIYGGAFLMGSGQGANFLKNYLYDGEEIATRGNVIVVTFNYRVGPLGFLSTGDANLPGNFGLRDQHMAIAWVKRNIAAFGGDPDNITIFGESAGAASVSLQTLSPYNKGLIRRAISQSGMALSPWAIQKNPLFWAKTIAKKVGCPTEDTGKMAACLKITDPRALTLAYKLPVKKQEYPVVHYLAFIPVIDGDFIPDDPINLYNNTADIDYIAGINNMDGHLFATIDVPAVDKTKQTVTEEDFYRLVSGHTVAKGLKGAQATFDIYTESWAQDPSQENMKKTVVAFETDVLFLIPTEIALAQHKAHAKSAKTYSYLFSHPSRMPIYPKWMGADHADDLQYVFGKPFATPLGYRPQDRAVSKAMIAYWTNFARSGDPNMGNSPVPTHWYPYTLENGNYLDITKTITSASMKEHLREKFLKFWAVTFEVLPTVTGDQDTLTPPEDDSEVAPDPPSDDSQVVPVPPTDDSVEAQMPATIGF
# T2: Human BSSL (bile salt-stimulated lipase), native (human, UniProt P19835 21-753)
# T2 construct: Native full-length protein purified from human milk (Astra Hässle AB); also called hBSSL; non-biotinylated human BSSL
# T2 sequence: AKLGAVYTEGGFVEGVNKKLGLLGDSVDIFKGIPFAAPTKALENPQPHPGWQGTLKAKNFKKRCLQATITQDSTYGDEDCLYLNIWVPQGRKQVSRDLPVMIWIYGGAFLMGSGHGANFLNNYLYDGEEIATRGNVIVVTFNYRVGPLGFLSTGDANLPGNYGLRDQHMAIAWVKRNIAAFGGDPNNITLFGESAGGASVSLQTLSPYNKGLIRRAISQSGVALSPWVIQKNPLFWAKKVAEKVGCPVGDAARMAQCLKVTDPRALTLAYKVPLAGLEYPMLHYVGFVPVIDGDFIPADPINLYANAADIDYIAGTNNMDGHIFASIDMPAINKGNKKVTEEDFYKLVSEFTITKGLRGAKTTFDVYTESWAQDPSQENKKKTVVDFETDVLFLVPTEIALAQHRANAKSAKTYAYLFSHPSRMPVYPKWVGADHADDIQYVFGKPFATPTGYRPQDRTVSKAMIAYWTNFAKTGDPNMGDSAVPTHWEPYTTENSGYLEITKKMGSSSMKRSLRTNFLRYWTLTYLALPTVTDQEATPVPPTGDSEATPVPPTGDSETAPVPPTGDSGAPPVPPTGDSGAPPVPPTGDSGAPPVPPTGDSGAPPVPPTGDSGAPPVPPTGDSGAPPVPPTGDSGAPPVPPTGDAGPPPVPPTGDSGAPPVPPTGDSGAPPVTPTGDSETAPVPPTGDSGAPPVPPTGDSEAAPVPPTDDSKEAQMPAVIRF
# T3: Biotinylated human BSSL (human, UniProt P19835 21-753, Biotinylated on glycosacarides, 30-40 biotin/BSSL)
# T3 construct: hBSSL biotinylated in house; also called b-hBSSL; human BSSL-biotin
# T3 sequence: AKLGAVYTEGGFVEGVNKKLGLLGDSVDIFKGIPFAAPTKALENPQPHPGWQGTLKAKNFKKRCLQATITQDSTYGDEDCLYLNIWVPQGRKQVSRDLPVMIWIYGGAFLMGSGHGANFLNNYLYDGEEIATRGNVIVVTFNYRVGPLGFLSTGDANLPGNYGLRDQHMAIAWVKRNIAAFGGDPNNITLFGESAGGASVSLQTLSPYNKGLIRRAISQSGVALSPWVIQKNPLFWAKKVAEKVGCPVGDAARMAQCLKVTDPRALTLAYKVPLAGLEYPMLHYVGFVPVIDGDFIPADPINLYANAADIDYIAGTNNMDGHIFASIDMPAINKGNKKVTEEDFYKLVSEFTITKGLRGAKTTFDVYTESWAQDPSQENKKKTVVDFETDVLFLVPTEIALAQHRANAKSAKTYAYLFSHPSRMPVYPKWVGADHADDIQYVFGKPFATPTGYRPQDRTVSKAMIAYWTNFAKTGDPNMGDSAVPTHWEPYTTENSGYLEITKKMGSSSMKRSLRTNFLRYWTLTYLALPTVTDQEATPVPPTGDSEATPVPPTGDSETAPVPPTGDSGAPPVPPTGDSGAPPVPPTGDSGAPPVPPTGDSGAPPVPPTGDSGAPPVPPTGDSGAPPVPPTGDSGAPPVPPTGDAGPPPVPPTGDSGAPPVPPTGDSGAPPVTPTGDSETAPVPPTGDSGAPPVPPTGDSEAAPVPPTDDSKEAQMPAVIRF
# Legend:
# Mouse BSSL, recombinant = target: T1, Mouse BSSL, recombinant; assay: SPR steady state, hIgG4 S228P captured by anti-Fab
# Method: (§1) Kinetic parameters of the hIgG4 S228P clones were determined by SPR using BIACORE® T200 (GE Healthcare). Single cycle kinetics was used to measure the affinity of the purified hIgG4 molecules to human and mouse BSSL. An anti-Fab antibody (GE Healthcare, #28958325) was immobilized on a CM5 S sensor chip by primary amine coupling using NHS-EDC chemistry. hIgG4 was captured by the anti-Fab antibody, and subsequently, five different concentrations of hBSSL (1:5 dilutions starting from 50 nM) or mBSSL (1:5 dilutions starting from 500 nM) were injected over the surface. The sensor chip surface was regenerated with 10 mM glycine-HCl pH 2.1. For binding to human BSSL, single cycle kinetic data was fitted to a 1:1 binding model and kinetic parameters were retrieved using software BlAevaluation. For mouse BSSL, a steady state analysis was performed by plotting the response level at equilibrium against each concentration, and KD values were retrieved by the BlAevalution software.
# [1] = target: T2, Human BSSL (bile salt-stimulated …); assay: SPR single cycle kinetics, hIgG4 S228P captured by anti-Fab
# Method: as §1
# Biotinylated human BSSL [2] = target: T3, Biotinylated human BSSL; assay: flow cytometry displacement assay; 3.0 ug antibody, 1 ug b-hBSSL
# Method: (§2) The 28 BSSL-specific hIgG4 antibodies and the five reference antibodies at different concentrations (ranging from 0.5 μg to 3.0 μg per reaction; see Table 10) were added to b-hBSSL (1 μg per reaction, see Table 2) in round-bottom polystyrene tubes, lx PBS (pH 7.4) was added to a final volume of 20 μl and the antibody/b-hBSSL mixtures were incubated for 30 min. at +4° C. to facilitate binding of antibodies to BSSL. Buffy coat (50 μl) was then added to each antibody/b-hBSSL mixture and incubation continued for another 30 min at +4° C. Thereafter, 2 ml of FACS lysing solution (BD Biosciences) was added and the cells were incubated for 10 min at room temperature in order to lyse erythrocytes and fix the white blood cells. The cells were then centrifuged for 5 min. at 200×g, the resulting pellets were washed by adding 2 ml of FACS buffer (1×PBS supplemented with 1% FCS and 0.1% NaN3) and centrifuged again. Finally, the supernatants were discarded and the cells were resuspended in the last drop of liquid, approximately 50 μl.
# (§3) 5 μl of BV421-labelled anti-human CD14 (BD Biosciences) and 5 μl of BB515-labelled streptavidin (BD Biosciences) was added to each tube and incubated for 30 min, at +4° C., protected from light. Thereafter, cells were washed twice with FACS buffer, resuspended in 500 μl FACS buffer, and run on BD LSRII flow cytometer (BD Biosciences). Finally, data were analyzed using FlowJo software (BD Biosciences).
# Biotinylated human BSSL [3] = target: T3, Biotinylated human BSSL; assay: flow cytometry displacement assay; 1.5 ug antibody, 1 ug b-hBSSL
# Method: as §2, §3
"Kd (Mouse BSSL, recombinant) [nM]",Kd [1] [nM],percentage reduction of b-hBSSL binding to CD14+ monocytes (Biotinylated human BSSL [2]) [%],percentage reduction of b-hBSSL binding to CD14+ monocytes (Biotinylated human BSSL [3]) [%],Binder
57,0.9,–,–,"S-SL048-13 hIgG4 S228P (antibody, V domains shown, Tested as human IgG4 S228P) VH: QVQLVQSGAEVKKPGASVKVSCKASGYTFTSYNMHWVRQAPGQGLEWIGVINPSDGATSYTQKFQGRVTMTRDTSTSTVYMELSSLRSEDTAVYYCARDYYGSSPLGYWGQGTLVTVSS VL: DIQMTQSPSSLSASVGDRVTITCSASPSISYLNWYQQKPGKAPKLLIYATSSLASGVPSRFSGSGSGTDFTLTISSLQPEDFATYYCQQRSSSPTFGQGTKLEIK"
237,6,–,–,"S-SL048-105 hIgG4 S228P (antibody, V domains shown, Tested as human IgG4 S228P) VH: QVQLVQSGAEVKKPGASVKVSCKASGYTFTSYNMHWVRQAPGQGLEWMGVINPSDGATSYAQKFQGRVTMTRDTSTSTVYMELSSLRSEDTAVYYCARDYYGSSPLGYWGQGTLVTVSS VL: DIQMTQSPSSLSASVGDRVTITCSASQSISYLHWYQQKPGKAPKLLIYAASKLPSGVPSRFSGSGSGTDFTLTISSLQPEDFATYYCHQRSSYPTFGQGTKLEIK"
–,6,–,–,"S-SL048-89 hIgG4 S228P (antibody, V domains shown, Tested as human IgG4 S228P) VH: QVQLVQSGAEVKKPGASVKVSCKASGYTFTSYNMHWVRQAPGQGLEWMGVINPSSGSTSYTQKFQGRVTMTRDTSTSTVYMELSSLRSEDTAVYYCARDYYGSSPLGYWGQGTLVTVSS VL: DIQMTQSPSSLSASVGDRVTITCRASPSISYLNWYQQKPGKAPKLLIYATSRLPSGVPSRFSGSGSGTDFTLTISSLQPEDFATYYCQQRSSNPTFGQGTKLEIK"
168,5.9,–,–,"S-SL048-110 hIgG4 S228P (antibody, V domains shown, Tested as human IgG4 S228P) VH: QVQLVQSGAEVKKPGASVKVSCKASGYTFTSYNMHWVRQAPGQGLEWMGVINPGDGATSYNQKFKGRVTMTRDTSTSTVYMELSSLRSEDTAVYYCARDYYGSSPLGYWGQGTLVTVSS VL: DIQMTQSPSSLSASVGDRVTITCSASQSISYLHWYQQKPGKAPKLLIYAASRLASGVPSRFSGSGSGTDFTLTISSLQPEDFATYYCHQRSSTPTFGQGTKLEIK"
–,5,54,28,"S-SL048-112 hIgG4 S228P (antibody, V domains shown, Tested as human IgG4 S228P) VH: QVQLVQSGAEVKKPGASVKVSCKASGYTFTSYNMHWVRQAPGQGLEWIGIIYPGDGATSYNQKFKGRVTMTRDTSTSTVYMELSSLRSEDTAVYYCARDYYGSSPLGYWGQGTLVTVSS VL: DIQMTQSPSSLSASVGDRVTITCRASSSISYMHWYQQKPGKAPKLLIYATSRLASGVPSRFSGSGSGTDFTLTISSLQPEDFATYYCHQRSSTPTFGQGTKLEIK"
164,–,–,–,"S-SL048-75 hIgG4 S228P (antibody, V domains shown, Tested as human IgG4 S228P) VH: QVQLVQSGAEVKKPGASVKVSCKASGYTFTSYNMHWVRQAPGQGLEWMGVIYPGGGYTSYAQKFKGRVTMTRDTSTSTVYMELSSLRSEDTAVYYCARDYYGSSPLGYWGQGTLVTVSS VL: DIQMTQSPSSLSASVGDRVTITCRASQSISYLNWYQQKPGKAPKLLIYATSNLQSGVPSRFSGSGSGTDFTLTISSLQPEDFATYYCHQRSSSPTFGQGTKLEIK"
–,1.8,–,–,"S-SL048-134 hIgG4 S228P (antibody, V domains shown, Tested as human IgG4 S228P) VH: QVQLVQSGAEVKKPGASVKVSCKASGYTFTSYNMHWVRQAPGQGLEWMGVINPSDGATSYAQKFKGRVTMTRDTSTSTVYMELSSLRSEDTAVYYCARDYYGSSPLGYWGQGTLVTVSS VL: DIQMTQSPSSLSASVGDRVTITCRASPSISYLNWYQQKPGKAPKLLIYATSKLPSGVPSRFSGSGSGTDFTLTISSLQPEDFATYYCQQRSSYPTFGQGTKLEIK"
–,8.5,–,–,"S-SL048-47 hIgG4 S228P (antibody, V domains shown, Tested as human IgG4 S228P) VH: QVQLVQSGAEVKKPGASVKVSCKASGYTFTSYNMHWVRQAPGQGLEWIGVINPGGGYTSYTQKFQGRVTMTRDTSTSTVYMELSSLRSEDTAVYYCARDYYGSSPLGYWGQGTLVTVSS VL: DIQMTQSPSSLSASVGDRVTITCSASPSISYMNWYQQKPGKAPKLLIYATSRLQSGVPSRFSGSGSGTDFTLTISSLQPEDFATYYCQQRSSTPTFGQGTKLEIK"
57,6.4,–,–,"S-SL048-12 hIgG4 S228P (antibody, V domains shown, Tested as human IgG4 S228P) VH: QVQLVQSGAEVKKPGASVKVSCKASGYTFTSYNMHWVRQAPGQGLEWMGVINPSDGATSYTQKFQGRVTMTRDTSTSTVYMELSSLRSEDTAVYYCARDYYGSSPLGYWGQGTLVTVSS VL: DIQMTQSPSSLSASVGDRVTITCSASSSISYMHWYQQKPGKAPKLLIYAASRLASGVPSRFSGSGSGTDFTLTISSLQPEDFATYYCHQRSSTSTFGQGTKLEIK"
82,9.6,–,–,"S-SL048-45 hIgG4 S228P (antibody, V domains shown, Tested as human IgG4 S228P) VH: QVQLVQSGAEVKKPGASVKVSCKASGYTFTSYNMHWVRQAPGQGLEWMGVINPSDGATSYTQKFQGRVTMTRDTSTSTVYMELSSLRSEDTAVYYCARDYYGSSPLGYWGQGTLVTVSS VL: DIQMTQSPSSLSASVGDRVTITCRASQSISYLHWYQQKPGKAPKLLIYAASRLASGVPSRFSGSGSGTDFTLTISSLQPEDFATYYCHQRSSTPTFGQGTKLEIK"
186,6,–,–,"S-SL048-115 hIgG4 S228P (antibody, V domains shown, Tested as human IgG4 S228P) VH: QVQLVQSGAEVKKPGASVKVSCKASGYTFTSYNMHWVRQAPGQGLEWMGVINPSDGATSYAQKFKGRVTMTRDTSTSTVYMELSSLRSEDTAVYYCARDYYGSSPLGYWGQGTLVTVSS VL: DIQMTQSPSSLSASVGDRVTITCRASQSISYMHWYQQKPGKAPKLLIYAASKLPSGVPSRFSGSGSGTDFTLTISSLQPEDFATYYCHQRSSSPTFGQGTKLEIK"
167,6.8,–,–,"S-SL048-86 hIgG4 S228P (antibody, V domains shown, Tested as human IgG4 S228P) VH: QVQLVQSGAEVKKPGASVKVSCKASGYTFTSYNMHWVRQAPGQGLEWMGVINPGDGATSYAQKFQGRVTMTRDTSTSTVYMELSSLRSEDTAVYYCARDYYGSSPLGYWGQGTLVTVSS VL: DIQMTQSPSSLSASVGDRVTITCRASQSISYLHWYQQKPGKAPKLLIYATSSLQSGVPSRFSGSGSGTDFTLTISSLQPEDFATYYCHQRSSYPTFGQGTKLEIK"
